Measurements reported in US20240400627A1.

Legend:
[1] = molecular target: Ganab (glucosidase II alpha-subunit), endogenous, mouse kidney (mouse) (UniProt Q8BHN3); experiment: anti-HA immunoprecipitation from DTSSP-crosslinked crude mitochondria (contain MAMs), LC-MS/MS proteomics
[2] = molecular target: Nicotinamide Nucleotide Transhydrogenase (NNT), endogenous, mouse kidney (mouse) (UniProt Q61941); experiment: anti-HA immunoprecipitation from DTSSP-crosslinked crude mitochondria, LC-MS/MS proteomics, n=3 per group
Nicotinamide Nucleotide Transhydrogenase (NNT), endogenous, mouse kidney (mouse), sequence (Q61941 44-1086 limits assumed): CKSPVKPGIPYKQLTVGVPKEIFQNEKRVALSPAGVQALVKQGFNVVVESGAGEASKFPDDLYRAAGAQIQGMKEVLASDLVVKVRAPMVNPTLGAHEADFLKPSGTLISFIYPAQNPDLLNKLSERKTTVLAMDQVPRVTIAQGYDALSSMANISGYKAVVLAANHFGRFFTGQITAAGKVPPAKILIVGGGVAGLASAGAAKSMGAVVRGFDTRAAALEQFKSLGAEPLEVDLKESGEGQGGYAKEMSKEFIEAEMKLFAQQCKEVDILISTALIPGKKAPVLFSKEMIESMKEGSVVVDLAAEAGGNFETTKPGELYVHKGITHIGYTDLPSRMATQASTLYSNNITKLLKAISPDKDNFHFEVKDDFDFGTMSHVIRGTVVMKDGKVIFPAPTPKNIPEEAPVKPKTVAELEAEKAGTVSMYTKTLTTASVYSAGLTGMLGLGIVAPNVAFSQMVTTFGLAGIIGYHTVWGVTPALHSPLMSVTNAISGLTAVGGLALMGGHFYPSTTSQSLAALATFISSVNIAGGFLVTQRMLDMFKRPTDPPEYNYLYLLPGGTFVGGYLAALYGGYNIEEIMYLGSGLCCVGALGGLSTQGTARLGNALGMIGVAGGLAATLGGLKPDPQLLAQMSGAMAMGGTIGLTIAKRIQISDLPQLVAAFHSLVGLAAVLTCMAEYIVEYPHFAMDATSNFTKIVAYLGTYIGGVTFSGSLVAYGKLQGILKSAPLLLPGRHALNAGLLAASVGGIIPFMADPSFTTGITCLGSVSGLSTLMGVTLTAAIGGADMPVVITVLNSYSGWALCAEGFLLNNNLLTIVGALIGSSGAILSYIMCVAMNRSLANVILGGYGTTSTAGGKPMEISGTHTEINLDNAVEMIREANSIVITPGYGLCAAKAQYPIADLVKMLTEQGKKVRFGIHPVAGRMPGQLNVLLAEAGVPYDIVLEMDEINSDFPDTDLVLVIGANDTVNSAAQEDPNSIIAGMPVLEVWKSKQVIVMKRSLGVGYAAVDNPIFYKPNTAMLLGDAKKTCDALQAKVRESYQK

3FLAG-PC1-3HA (PC1 tagged with a 3xFLAG epitope at its N-terminus and a 3xHA sequence at its C-terminus, Pkd1F/H-BAC mouse) and its HA-tagged fragments (150-kDa CTF; PC1-CTT-3HA fragments of 17-37 kDa, sequence (O08852 3041-4293): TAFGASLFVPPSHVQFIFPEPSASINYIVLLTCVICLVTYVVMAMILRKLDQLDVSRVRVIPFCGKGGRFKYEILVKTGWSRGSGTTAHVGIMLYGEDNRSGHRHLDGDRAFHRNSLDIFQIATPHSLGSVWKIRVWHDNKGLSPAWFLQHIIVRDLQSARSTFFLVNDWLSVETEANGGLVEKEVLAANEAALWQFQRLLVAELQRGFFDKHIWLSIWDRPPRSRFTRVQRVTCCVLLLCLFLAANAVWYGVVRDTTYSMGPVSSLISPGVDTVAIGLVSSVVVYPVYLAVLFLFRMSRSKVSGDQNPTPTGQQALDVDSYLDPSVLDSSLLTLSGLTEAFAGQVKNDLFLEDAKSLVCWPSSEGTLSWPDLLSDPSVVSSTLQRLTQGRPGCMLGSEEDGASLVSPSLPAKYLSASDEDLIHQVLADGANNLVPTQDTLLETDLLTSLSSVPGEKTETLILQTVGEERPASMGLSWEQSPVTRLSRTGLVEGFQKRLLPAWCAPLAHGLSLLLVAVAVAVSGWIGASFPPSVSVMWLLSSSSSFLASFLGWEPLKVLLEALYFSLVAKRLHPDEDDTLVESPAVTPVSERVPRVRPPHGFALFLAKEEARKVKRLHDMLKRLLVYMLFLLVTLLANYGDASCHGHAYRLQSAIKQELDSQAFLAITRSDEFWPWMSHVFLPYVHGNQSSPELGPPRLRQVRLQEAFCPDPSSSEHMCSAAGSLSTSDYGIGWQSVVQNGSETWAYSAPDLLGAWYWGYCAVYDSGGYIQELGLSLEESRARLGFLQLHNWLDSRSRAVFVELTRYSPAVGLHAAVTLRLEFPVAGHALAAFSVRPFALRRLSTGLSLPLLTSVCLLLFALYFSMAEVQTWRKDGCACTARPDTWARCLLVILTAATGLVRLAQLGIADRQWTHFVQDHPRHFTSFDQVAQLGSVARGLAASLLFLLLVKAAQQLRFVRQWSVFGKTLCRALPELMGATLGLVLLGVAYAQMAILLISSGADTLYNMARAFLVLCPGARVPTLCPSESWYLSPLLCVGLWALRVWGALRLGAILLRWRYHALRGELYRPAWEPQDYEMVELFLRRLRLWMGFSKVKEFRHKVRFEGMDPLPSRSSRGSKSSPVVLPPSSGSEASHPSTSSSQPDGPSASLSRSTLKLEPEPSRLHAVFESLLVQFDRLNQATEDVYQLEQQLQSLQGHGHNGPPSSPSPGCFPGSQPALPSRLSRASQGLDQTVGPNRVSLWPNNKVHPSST
Ganab (glucosidase II alpha-subunit), endogenous, mouse kidney (mouse), sequence (Q8BHN3 33-944 limits assumed): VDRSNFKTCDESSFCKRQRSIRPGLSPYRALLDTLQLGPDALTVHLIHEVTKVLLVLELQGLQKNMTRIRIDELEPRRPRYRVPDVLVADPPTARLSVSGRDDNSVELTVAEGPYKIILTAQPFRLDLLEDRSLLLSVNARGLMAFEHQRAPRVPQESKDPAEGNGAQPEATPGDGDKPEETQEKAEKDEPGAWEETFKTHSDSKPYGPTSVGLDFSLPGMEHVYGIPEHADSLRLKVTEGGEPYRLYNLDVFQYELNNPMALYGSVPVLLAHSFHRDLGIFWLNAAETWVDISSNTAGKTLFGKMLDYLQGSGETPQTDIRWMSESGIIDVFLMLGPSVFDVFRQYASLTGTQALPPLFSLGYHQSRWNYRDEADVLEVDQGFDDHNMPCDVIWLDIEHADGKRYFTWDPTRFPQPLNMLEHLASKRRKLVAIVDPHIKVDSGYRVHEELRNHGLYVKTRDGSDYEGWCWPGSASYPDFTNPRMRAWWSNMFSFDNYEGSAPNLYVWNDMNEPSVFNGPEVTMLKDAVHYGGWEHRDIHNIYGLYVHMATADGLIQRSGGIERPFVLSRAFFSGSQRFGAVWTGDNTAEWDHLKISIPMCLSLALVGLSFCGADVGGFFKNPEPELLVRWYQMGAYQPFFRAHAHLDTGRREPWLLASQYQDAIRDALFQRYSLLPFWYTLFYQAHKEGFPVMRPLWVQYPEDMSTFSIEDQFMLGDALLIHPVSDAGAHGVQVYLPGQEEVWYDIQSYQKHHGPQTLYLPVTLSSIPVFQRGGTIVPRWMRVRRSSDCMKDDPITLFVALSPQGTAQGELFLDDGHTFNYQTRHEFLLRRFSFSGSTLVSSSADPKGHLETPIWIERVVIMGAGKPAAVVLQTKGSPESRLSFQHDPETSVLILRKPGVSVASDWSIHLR

“3FLAG-PC1-3HA (PC1 tagged with a 3xFLAG epitope at its N-terminus and a 3xHA sequence at its C-terminus, Pkd1F/H-BAC mouse) and its HA-tagged fragments (150-kDa CTF; PC1-CTT-3HA fragments of 17-37 kDa) (from UniProt O08852 3041-4293)” was tested, and the fold enrichment in immunoprecipitates against WT [1] was 4 fold and the fold amount of NNT co-immunoprecipitated against control WT immunoprecipitates [2] was > 16 fold.
